Patent publication US20150086555A1

B1: TCN-540 (5060_F05) (antibody, V domains shown)
VH: QVQLVQSGGGVVQPGRSLRLSCAASGFTFSSYAMHWVRQAPGKGLEWVAIISYDGNDQYYTDSVKGRFTISRDSSKVYLQMHRLRPEDTAVYYCAKEFETSGYFHGSFDYWGQGILVTVSS
VL: QSALTQPASVSGSPGQSITISCTGTSSDVGGYNYVSWYQQHPGKAPKLLIYEVTNWPSGVSNRFSGSKSGNTASLTISGLQAEDEADYYCSSYAGSSTWVFGGGTRVTVL
B2: TCN-546 (5089_L08) (antibody, V domains shown)
VH: QVQLQQWGAGLLKPSETLSLTCGVYGGSLSDYYWSWIRQPPGKGLEWIGEINHSGGTNYNPSLKRRVTISVDTSKKQFSLKMNSVTAADTAVYYCARGTDPDTEVYCRAGNCAAFDFWGQGTLVTVSS
VL: EIVLTQSPGTLSLSPGERATLSCRASHFVIGRAVAWYQQKPGQAPRLLIYGASSRATGIPDRFSGSGSGTDFTLTISRLETEDFAVFYCQHYGSSPRYAFGQGTKLEIK
B3: TCN-530 (5248_H10a) (antibody, V domains shown)
VH: QVQLVQSGAEVRKPGSSVKVSCKASGGPFMSYAIGWVRQAPGQGLEWMGGINPVFGRPHYAQKFQGRVTIATDDSTKTSYMELSSLTSEDTGMYYCASRYSRSSPGTFESWGQGTLVTVSS
VL: EIVMTQFPATLSVSPGERVTLSCRASQSVSNNLAWYQQKPGQPPRLLIYDASTRATGVPAKFSGTGSGTEFTLSISSLQSEDFAVYYCQQYHNWPPSYSFGLGTKLEIK
B4: TCN-543 (5081_G23) (antibody, V domains shown)
VH: QVHLVQSGAEVRKPGDSVKVSCKTSGYTFSTYPVAWVRQVPGQGLEWMGWISTYNGNTNFAQNFQGRVTLTTDTTTNTAYMEVRSLKFDDTAVYYCARVEGSYRDFWNNQNRFDPWGQGTLVTVSS
VL: SYVLTQPPSVSVAPGQTARISCGGSNIGGKSVHWYQQKPGQAPVLVVYDDSGRPSGIPERFSGSNSGDTATLTISRVEAGDEADYFCQVWDNFGGVFGTGTKVTVL
B5: TCN-536 (5095_N01) (antibody, V domains shown)
VH: QVQLQQWGAGLLKPSETLSLTCAVYGGSFSVSGYYWSWIRQPPGRGLEWIGEISHGGSTNYNPSLKSRVTISVDTTKNQFSLRLSSVTAADTAVYYCARGTDPDTEVYCRVGNCAAFDYWGQGSLVTVSS
VL: EIILAQSPGTLSLSPGERATLSCRASQFVSTRSLAWYQQRPGQAPRLLIYGASSRATGIPDRFSGSGSGTDFTLTISRLEPEDFAVYYCQHYGYSPRYAFGQGSKVEIK
B6: TCN-539 (5056_A08) (antibody, V domains shown)
VH: QVQLVESGGGVVQPGRSLRLSCAASEITFITYAMHWVRQAPGKGLEWVALISDDGSNKFYADSVKGRFTISRDNSKNTLYLQMNSLRAEDTAAYYCAREGVYFDSGTYRGYFDYWGQETLVTVSS
VL: EIVLTQSPATLSLSPGERATLSCRASQSVSSYLAWYQQKPGQAPRLLIYDASNRATGIPARFSGSGSGTDFTLTISSLEPEDFAVYYCQQRSHWPPITFGQGTRLEIK
B7: TCN-538 (3206_O17) (antibody, V domains shown)
VH: QITLKESGPTLVKPTQTLTLTCVFSGFSLSITGVRVGWIRQPPGKALEWLALISWDDEKHYSPSLQSRLTITKDTSKNQVVLTMTNLDPVDTATYYCARSTDRGHVLRYFGWMLPGDAFDVWGQGTMVTVSS
VL: DIVMTQSPDFLPVSLGERATINCKSSQRVLYSSNNKNYLAWYQLKPGQPPKLIIYWASTRESGVPDRFSGSGSGTEFTLTISSLQAEDVAVYYCQQYYSRPYTFGQGTKLEIK
B8: TCN-534 (5249_B02) (antibody, V domains shown)
VH: QVQLVQSGAEVKKPGSSVKVSCRESGGTFNGYTITWVRQAPGQGLEWMGGIIPMMGTVNYAQKLQGRVTITTDYFTKTAYMDLNNLRSEDTAMYYCVKIRYTGQQLLWGQGTLVTVSS
VL: DIQMTQSPSTLSASIGDRVTITCRASQSIASWLAWYQQKPGKAPKLLIYEAVNLESGVPSRFSGSGSGTDFTLTISSLQPDDFATYFCQHYGTISQTFGGGTKVEIK
B9: TCN-535 (5246_P19) (antibody, V domains shown)
VH: QVQLVQSGSEVKKPGTSVKVSCTASGSVFTNYGISWVRQAPGQGLEWMGGIIPLFGAAKYAQKFQGRVTITADESTKTVYMELSRLTSKDTAIYFCAKAPRVYEYYFDQWGQGTPVTVSS
VL: EIVLTQSPGTLSLSPGERATLSCRASQSVSSSQLAWYQQKPGQAPRLIIYGASTRATGIPDRFSGSGSGTDFTLTIGRLEPEDFAVFFCQQYSTSPPTFGQGTKVDFK

The binders below were run against recombinant homotrimeric HA A/duck/Yangzhou/02/05 H8N4 (Influenza A virus A/duck/Yangzhou/02/2005(H8N4)) (assay: protein microarray, purified IgG, trimeric HA). Settings: remark: other sources report otherwise.
B1 was tested, and the Trimeric HA Binding: RLU was 318 RLU.
B2 was tested, and the Trimeric HA Binding: RLU was 211 RLU.
For B3, the Trimeric HA Binding: RLU was 158 RLU.
With B4 the Trimeric HA Binding: RLU was 119 RLU.
B5 showed a Trimeric HA Binding: RLU of 251 RLU.
With B6 the Trimeric HA Binding: RLU was 124 RLU.

Each binder was assayed against recombinant homotrimeric HA A/swine/Ontario/01911-2/99 H4N6 (Influenza A virus A/Swine/Ontario/01911-2/99 (H4N6)) (assay: protein microarray, purified IgG, trimeric HA). Settings: remark: other sources report otherwise.
Binder B1 has a Trimeric HA Binding: RLU of 138 RLU.
B3 gave a Trimeric HA Binding: RLU of 139 RLU.
Binder B4 has a Trimeric HA Binding: RLU of 169 RLU.
For B5, the Trimeric HA Binding: RLU was 126 RLU.

The binders below were run against recombinant soluble homotrimeric HA of A/Egypt/3300-NAMRU3/08 (H5N1) (Influenza A virus A/Egypt/3300-NAMRU3/2008(H5N1)) (assay: HA microarray, BCC supernatant). Settings: remark: other sources report otherwise.
B1 gave a Trimeric HA Binding: RLU of 1970 RLU.
B3 showed a Trimeric HA Binding: RLU of 30400 RLU.
For B7, the Trimeric HA Binding: RLU was 23600 RLU.
Binder B8 has a Trimeric HA Binding: RLU of 41400 RLU.
In the case of B9, the Trimeric HA Binding: RLU is reported as 39400 RLU.
B6 was tested, and the Trimeric HA Binding: RLU was 11400 RLU.
